In the data set the target is T1, AdpAlin (Streptomyces lincolnensis NRRL 2936) (UniProt A0A1B1M9Y0).
T1 sequence: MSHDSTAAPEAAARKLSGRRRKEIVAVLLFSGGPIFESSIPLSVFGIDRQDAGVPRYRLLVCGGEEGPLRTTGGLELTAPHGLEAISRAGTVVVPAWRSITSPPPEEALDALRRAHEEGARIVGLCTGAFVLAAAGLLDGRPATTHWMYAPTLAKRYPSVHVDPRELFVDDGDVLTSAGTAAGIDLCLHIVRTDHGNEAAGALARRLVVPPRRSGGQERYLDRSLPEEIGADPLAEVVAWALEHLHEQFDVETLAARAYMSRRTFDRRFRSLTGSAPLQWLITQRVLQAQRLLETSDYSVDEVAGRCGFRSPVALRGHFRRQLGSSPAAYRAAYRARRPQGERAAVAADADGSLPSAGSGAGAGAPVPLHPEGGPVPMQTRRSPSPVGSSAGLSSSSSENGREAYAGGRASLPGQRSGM
Nature of the data set: EMSA. The following applies: EMSA: 20 mM Tris-HCl pH 7.5, 5% glycerol, 0.1% BSA; 2.5 nM 5'-biotin probe; AdpAlin 0-6.4 uM (12.8 uM for probe-neg); 200-fold unlabeled competitor; salt and …. (In general: In EMSA bound probe runs differently from free probe, usually more slowly.)
As for “AGCCAGTGACGATAAGCGACCACCTGGGTCTCGCCCTGACCGTAGATCTTCGACAGATCCGTGGCACGCGCCGCCACTGCGGTGGTCCGGCCGACGATGGGTGTGGTGGTCACGAGAGGGCACTCCTGGGAACGACGACTGGGGGAATACCTCCATCGTCGCCGCCGCGGAGCGCCGTGTAGTCAGCCGCTGTTCCCTTATCGTCACTGGCT (double strand) [bldAp-N]”, the binding entry is given as “no binding”.
The same measure for “AGCCAGTGACGATAAGCGAGACAAGCAATCGGCTTCACGCCCTGTCAAGCGGCAGCAGACGGCTTCCCGTAATTCCTGGAAGTTATCCGGGAGTCGGCGCGAACGGCCCTCGATATCCGGTGCATTACCTGGGAATAGGGAATAGGGAACCGGTAATCCGCGGTCGGGGCAAGCGTCTGGGTGCGTGGACTTATCGTCACTGGCT (double strand) [mlmbAp-A]”: “no binding”; for “AGCCAGTGACGATAAGCGAGACAAGCAATCGGCTTCACGCCCTGTCAAGCGGCAGCAGACGGCTTCCCGTAATTCCTGGAAGTTATCCGGGAGTCGGCGCGAACGTGCCGCCACGGCCCTCGATATCCGGTGCATTACCTGGGAATAGGGAATAGGGAACCGGTAATCCGCGGTCGGGGCAAGCGTCTGGGTGCGTGGACTTATCGTCACTGGCT (double strand) [lmbAp-A]”: “binds”.
The same measure for “AGCCAGTGACGATAAGCGGGGACACACAGGGGTGGGCGGCACGGTGGGGGAAATACACCGGTCGGCTGACCGGTTTCCGCGCACGCGCCCGACTCTTTTCAGCCAACTTCCGACCACCGGGCATCCTTGTGTCCAACCACCCCCCAACCCCCGTTTGACCTGCACGGAAAGGGTCCCCACTTATCGTCACTGGCT (double strand) [adpAp-B-1]”: “no binding”; for “AGCCAGTGACGATAAGCGTGTCTGCATTCCACCATCCGGGCAGGCCATGGGCTCCGCATCGAGGTTCCCGAGCCTATCGGGACGCCTCCCCCCAACAGGGGTCGGGTGGCCCGATGTTGTCTTATTTTATTGAGTTCTGAGGGAGCCTTATCGTCACTGGCT (double strand) [bldAp-A]”: “binds”.
As to “AGCCAGTGACGATAAGCTATAGGCTTCGCGGGCTTCGAACTCCGCAGCCGCCACGCCGACTTCGACGGTGCCGCCTACCGCCCGGACAGCCGCTACCACGTGTCCGTCTACGCCCGGGCGCACGGTGACTAGGGCGCGACGGCTCGCCGCCGCCGCGTTCCGGGCCTTATCGTCACTGGCT (double strand) [mlmbKp-B]”, the binding entry is “no binding”.
The same measure for “AGCCAGTGACGATAAGGCGTTTACCTAGAACAAATCCGGGGCAAGCTCGCTCAGCTGTCGCCATGGGCGCCCTGACGCCACTGCGGCCCACGGATCGCCCCGTCAGCAAACTGGCCGAATGCCAACGGCATACGGCCAGTTCCTGACGCGGGCCACGGGGTTCACTCCGCGGACCACGCGTGCGGCGGCCGCCTCACTTATCCCGATGAGGCCACGCGTCGTCCGCCTCCGCGATCTCCTCCAGGGTTCCGTCCTTATCGTCACTGGCT (double strand) [lmbUp-C]”: “binds”; for “AGCCAGTGACGATAAGGGCCACACGTCGTAGACATCTGCGATCTTGTCACCGTAGAGCTTCGCGAAATCATGGTCGGACATTGAATTCTCTTTCCTCACCAGGACGTTGGCCACTCGGCGAGCGGCCGCAGGGAGACGGTGGCATGGGACGCGAGGGACAGTCGACACGGCAGCCGGTACCGGCGGTGTTCTTCGACCGGGACGGCGCTTATCGTCACTGGCT (double strand) [lmbJp-A]”: “binds”.
In the case of “AGCCAGTGACGATAAGGGCCACACGTCGTAGACATCTGCGATCTTGTCACCGTAGAGCTTCGCGAAATCATGGTCGGACATTGAATTCTCTTTCCTCACCAGGCTCGGCGAGCGGCCGCAGGGAGACGGTGGCATGGGACGCGAGGGACAGTCGACACGGCAGCCGGTACCGGCGGTGTTCTTCGACCGGGACGGCGCTTATCGTCACTGGCT (double strand) [mlmbJp-A]”, the binding entry was “no binding”.
As to “AGCCAGTGACGATAAGGGCGTAGACGGACACGTGGTAGCGGCTGTCCGGGCGGTAGGCGGCACCGTCGAAGTCGGCGTGGCGGCTGCGGAGTTCGAAGCCCGCGAAGCGGGCCATCAGGTCCAGCTCCGTGGGGTGCTTATCGTCACTGGCT (double strand) [lmbKp-B]”, the binding result was “binds”.
With “AGCCAGTGACGATAAGGGTTCCCGTGGTGCTCCTCTGGTACGGCACCTCGCTCGCCGGCGCCGCCGGCACCGCGCTCGGACTGGCCGCCGTCACCGCCGTCTGCCGTATCCTCCTGCGCCAGTCGGAGCGCGGTGCGGCACGGCTACTGGCCGAAGAACGGGCCCCCCATCGCGGCCACCGCCACCGGGCCGGAACGGGGACACACAGGGGTGGGCGCTTATCGTCACTGGCT (double strand) [adpAp-B-2]”, the binding result was “binds”.
In the case of “AGCCAGTGACGATAAGTCGGACGAGGACGACGACAACCCCGCGGACGACCCGACAGGACTCGGCGAACGCCGCGTCTGCATCGGCACCGGCCCGCCCTCCGGATGCAGCGGAACCGGCGCACCGGCACCCGCCCCCGATCCGGCGGACGGCAAGGACCCGTCAGCGTCCTTATCGTCACTGGCT (double strand) [probe-neg]” it was “no binding”; in that of “AGCCAGTGACGATAAGTCTACTGTGTCGCGTGATGCCGGAGTGACCAGTTCGTCATCCGGCAGATTGTCGACTTGGCAACTTGGCGTGAAGCATTCGATCACGAAGCGTTGCACTCGTGGGGCGTGCAGGGAAGTGCGCCTTGTCGCAGTGGCCAATCCACGTAGGGTGCGCTTATCGTCACTGGCT (double strand) [adpAp-A]”, “binds”; in that of “AGCCAGTGACGATAAGTGATCCGTACTTGATACATTGGCCGTTACATGTATCGGAGTTCCGAGGGGGGGCAATGATGCTGGTTCCGCCAAGCCATTCATGAGCTGCTCGCCTGCGCCGCCCTTCGTGGCGGTGGCGCGACATCGATGAGCGTGGTGGGCGCCGAACAACGGGGGTGAATCGCTGCTTCTTATCGTCACTGGCT (double strand) [lmbUp-A]”, “binds”.

For the origin of these results see publication PMC6819324.
